Ends that are not written are not given here. * marks the point of attachment. Biotin = O=C1N[C@H]2[C@H](CS[C@H]2CCCCC(=O)*)N1; Ahx = NCCCCCC(=O)O

This assay has as its target calmodulin (CaM), recombinant (UniProt P0DP23 1-149). The assay can be described thus: SPR. In general terms: Surface plasmon resonance follows binding to a sensor surface in real time, without labels.

B1: biotin-ahx-AKAP18δ-N (79–98) (peptide)
peptide: {Biotin-Ahx}-KKRKKAKKDYQPNYFLSIPI
Consider B1, for which the Kd (in general, a measure of binding affinity in units of concentration) was 4.7 ± 0.7 µM; the koff (in general, a measure of how fast the partners let go of each other) is 0.00053 s⁻¹; the kon – broadly, the second-order rate constant of association – was 130 M⁻¹ s⁻¹.
